Assay results published in patent US20250114433A1 (published 2025).
One block for each binder: values may come before it.

Key:
[1] = target: KRAS 7-16(G12V) SCT tetramer #7; assay: flow cytometry, tetramer labelling of TCR-transduced donor X CD8+ T cells, Tetramer APC against CD8 ef450 [Continued]
[2] = target: KRAS 7-16(G12D) SCT tetramer #2 (human); assay: as above
[3] = target: HLA-A2 (DM)/KRAS (5-14_G12V)-peptide multimer; assay: flow cytometry, Tet+ gate frequency; A2DM/KRAS G12V 5-14 tetramer at 1:200 [Continued]
[4] = target: HLA-A2 (DM)/KRAS (5-14_G12V)-peptide multimer; assay: flow cytometry, Tet+ gate frequency; A2DM/KRAS G12V 5-14 tetramer at 1:400 [Continued]
[5] = target: T1, KRAS G12V (same sequence in NRAS and HRAS G12V) peptide on HLA-A*11:01 (human); assay: cytokine release
T1 peptide: VVVGAVGVGK

[6] = target: T2, KRAS G12D (same sequence in NRAS and HRAS G12D) peptide on HLA-A*11:01 (human); assay: cytokine release
T2 peptide: VVVGADGVGK

[7] = target: T3, KRAS G12V (same sequence in NRAS and HRAS G12V) peptide on HLA-A*11:01 (human); assay: cytokine release
T3 peptide: VVGAVGVGK

[8] = target: HLA-A2 (DM)/KRAS (5-14_G12V)-peptide multimer; assay: flow cytometry, Tet+ gate frequency; A2DM/KRAS G12V 5-14 tetramer at 1:100 [Continued]
[9] = target: A2/KRAS G12V 5-14 (human), A*02:0; assay: flow cytometry, Tet+ gate frequency; A2/KRAS G12V 5-14 tetramer at 1:400; no-tetramer control Tet+ 0
[10] = target: HLA-A2 (DM)/KRAS (5-14_G12V)-peptide multimer; assay: flow cytometry, Tet+ gate frequency; A2DM/KRAS G12V 5-14 tetramer at 1:50 [Continued]

tetramer gate (share of cells in the gate; unit not given) [1]: 4.06
tetramer gate (share of cells in the gate; unit not given) [2]: 14.8
B1: 141_1 TCR (TCR, V domains shown)
V domain 1: AQTVTQSQPEMSVQEAETVTLSCTYDTSESDYYLFWYKQPPSRQMILVIRQEAYKQQNATENRFSVNFQKAAKSFSLKISDSQLGDAAMYFCALKTSYDKVIFGPGTSLSVIP
V domain 2: NAGVTQTPKFQVLKTGQSMTLQCAQDMNHEYMSWYRQDPGMGLRLIHYSVGAGITDQGEVPNGYNVSRSTTEDFPLRLLSAAPSQTSVYFCASSLGAGEWKSPLHFGNGTRLTVTE

tetramer gate (share of cells in the gate; unit not given) [1]: 5.19
tetramer gate (share of cells in the gate; unit not given) [2]: 82.8
Tet+ [3]: 33.7
Tet+ [4]: 9.2
binding result [5]: no recognition
binding result [6]: recognises
binding result [7]: no recognition
Tet+ [8]: 45
Tet+ [9]: 84.6
Tet+ [10]: 58.7
B2: TCR13 (TCR, V domains shown)
Valpha: QKEVEQDPGPLSVPEGAIVSLNCTYSNSAFQYFMWYRQYSRKGPELLMYTYSSGNKEDGRFTAQVDKSSKYISLFIRDSQPSDSATYLCAMSASAAGNKLTFGGGTRVLVKP
Vbeta: EADIYQTPRYLVIGTGKKITLECSQTMGHDKMYWYQQDPGMELHLIHYSYGVNSTEKGDLSSESTVSRIRTEHFPLTLESARPSHTSQYLCASSEGLYNEQFFGPGTRLTVL

tetramer gate (share of cells in the gate; unit not given) [1]: 3.96
tetramer gate (share of cells in the gate; unit not given) [2]: 3.48
B3: TCR_20 (TCR, V domains shown)
V domain 1: DAKTTQPPSMDCAEGRAANLPCNHSTISGNEYVYWYRQIHSQGPQYIIHGLKNNETNEMASLIITEDRKSSTLILPHATLRDTAVYYCIVRLNSGNTPLVFGKGTRLSVIA
V domain 2: EAGVAQSPRYKIIEKRQSVAFWCNPISGHATLYWYQQILGQGPKLLIQFQNNGVVDDSQLPKDRFSAERLKGVDSTLKIQPAKLEDSAVYLCASSPTFPAGDRDTQYFGPGTRLTVLE
